Assay: soluble on expression in E. coli; label from the status in PepcDB or PDB records

Row | Sequence | soluble on expression in E. coli
1 | MTQITKFHGVFPPVPTIVNAQGELDKVGMATLLDHLIASKVNGVLLLGSGGEFCHMTNALRLETAEFCVRHINRRIPVLLGISSTSTQEVIEYGQHADRLEVDAVLVLNPYYARLTDEYIYHHFKTVANNIKSPVILYNFPALTGQDLSVDLITRLAQDHPNIIGIKDTVDNISHIREIINNVRPVRPDFVIFSGYDEYMMDTLILGGNGGIPATANFAPQLTCGIYRAWCEKEYETMFGLQRRLSALSTIYSLDSPFFGIIKKAIQLSGVDISTHVMPPVLPANEEHISNLKQILQRAGL | not soluble
2 | MTKKSTIQPCLVCGQSSNSILFGAPSCRACGEFFRRKVISNFKIKNNCLGECSFAKKSMKPCQSCRFQKCLEAGMLEKMVFSRKAIYSISNFEKSILEELEEAYSKLEHGRNETFNPKSDSNPKFCSHEELNNTCTIDIQIILDNLISYFQAKKPMGKEQDDVLKMHFIVPFVLFDTAFRAIGKSSYISPDGTMFGGSYVEKLYQDSSNSKIGVNNGKTSREIMESYWKVSYKILKSEMELLQLDRSEFLLLSALIYWDFGLENQSDKCCENCNTIREKVLKELVKYERKKSGQNALRIAMIMGLLQAVPKALDVMKTCGFLSKIYNLRGSGCPLYAISTNSPPQ | not soluble
3 | MGSDKIHHHHHHMIKIKKSEDCCGCSACLSICNHNAIVFKEDVEGFKYPMIEEGKCINCGLCEMACPILYRKVKDIRPTPKAYFAARHKNIVTLRNSSSGGAFTAIAGSVIELGGVVCGVEYDNDGVVRHSFSETMEGIRSFMGSKYVQSEIQGVYNQIKTYLKSDRWVLFTGSPCQVEGLKLFLRKPYENLLTVDLVCHAVPSPLIYKQYINMCSTKLGQKVMSINMRYKQTYGWSHRFSYCFYFENGQKAVDPVWVVNWGKIFFSQMINRPSCHSCKYSNLDRPGDFTIADFWDDKKNRPDLYSCEGTSLLMVNTNMGLDLINKLYDSIDLWKITKDEAMQPCLIRPTCSNQRRQEFWEFYLLRGFDAAYKKYFGDSKYVITKKIVKQIIKRVLRKLQ | not soluble
4 | GPGSMFSCCLRSLARGREPQVLGTAVPSFYNFPYRAQDVLHLYRDLLKLIYQHPPQERADLLFRLRNEFHSRRHLSAPKLISAAIRRGEGILNVQRGLMESRSVRARAVASRERGAQSVDGLWDQLQIVSGHMLPGLRNFSASRGLSRGSYVRQATTQAVYSRRK | not soluble
5 | MICYEYINDYIRKTIKKNEGFLAELEEFAKENHVPIVHPEVASLLRVIGLTLRPSRVLEVGTAIGYSAILFSTFLEPGGRIDTIDRYELMLEKARANVKKAGLQDVINIIEGDALEVLKCLEHKYDMIFLDAAKGQYPEFLPECLRLLRSGGLLISDNILYKGMVAKDELVVRRKKTIVKRLRNYLETICNTDELETSILPVGDGLAISFKK | not soluble
6 | MSLIDKSSEIARFSGKGILITPKTLEKPLLKWEKLEIILYKDKIVFEFVDKTIEVGVEDIEDVGAELPKKVIDIAKSTLEDITYHSSIIIKSKEFGNVMVGFAPETSIYGKAPIDNFLRKLFYILLNKKEVKILYNAGENSENTKWENGFLTFIKKRIKDGLVTKIEYRLVVEILDNEDSKIYDIFSNIKDVEIEEKDVDGEIEPVLKILQVKDGKDIISYLYTKDKKVRLFILRYMVILLDYKYIGILRYLQETVEEGHHHHHH | soluble
7 | GPHMLGILNKMFDPTKRTLNRYEKIANDIDAIRGDYENLSDDALKHKTIEFKERLEKGATTDDLLVEAFAVVREASRRVTGMFPFKVQLMGGVALHDGNIAEMKTGEGKTLTSTLPVYLNALTGKGVHVVTVNEYLASRDAEQMGKIFEFLGLTVGLNLNSMSKDEKREAYAADITYSTNNELGFDYLRDNMVLYKEQMVQRPLHFAVIDEVDSILIDEARTPLIISGQAAKSTKLYVQANAFVRTLKAEKDYTYDIKTKAVQLTEEGMTKAEKAFGIDNLFDVKHVALNHHINQALKAHVAMQKDVDYVVEDGQVVIVDSFTGRLMKGRRYSEGLHQAIEAKEGLEIQNESMTLATITFQNYFRMYEKLAGMTGTAKTEEEEFRNIYNMQVVTIPTNRPVVRDDRPDLIYRTMEGKFKAVAEDVAQRYMTGQPVLVGTVAVETSELISKLLKNKGIPHQVLNAKNHEREAQIIEEAGQKGAVTIATNMAGRGTDIKLGEGVKELGGLAVVGTERHESRRIDNQLRGRSGRQGDPGITQFYLSMEDELMRRFGAERTMAMLDRFGMDDSTPIQSKMVSRAVESSQKRVEGNNFDSRKQLLQYDDVLRQQREVIYKQRFEVIDSENLREIVENMIKSSLERAIAAYTPREELPEEWKLDGLVDLINTTYLDEGALEKSDIFGKEPDEMLELIMDRIITKYNEKEEQFGKEQMREFEKVIVLRAVDSKWMDHIDAMDQLRQGIHLRAYAQTNPLREYQMEGFAMFEHMIESIEDEVAKFVMKAEIENNLEREEVVQGQTTAHQPQEGDDNKKAKKAPVRKVVDIGRNAPCHCGSGKKYKNCCGRTE | soluble
8 | LLTLSDIGLSVHRYSNRLDVFTQALEGGKALGDVSVDVYDDNGKVVAQGKTDSDGHARLPLPAKAAVVLAHKDEQTSMLRLNSSALDLAEFDISGPQAHPLQFFIFGPRDLYRPGETVLLNGLLRDSDGKNVKPQPITVEVRRPDDQVSRKFVWEADSSGFYQYQLQLAEEAPTGRWQLVFDLGDGKPQLYEFKVEDFLPERLALELKGSDAPVAPADNPEFDITGRYLYGAPASGNTLTGQVYVRPLREAVAKLPGYQFGSITE | not soluble
9 | MSLATIYDVSVLAGVSLATVSRVMNKNTNVSEKTKKKVQDAMDQLGYRPSSIAQSLASNRSNSIGVLVSQLDGPFYGPMMTEIETALRDANKHVIIAAGHSNETQEKEAVEFLLDRGCDALILDVEALSDEYIINLCQQSTPIVLINRFISEIEERCIYLNNALGGYLATKHVLSQGHTQLAYIAGPQFKSDARERLEGHKQALAEFEVTFDETLFFEGNFREPSGVSAMEYLLKQDKQFTCVISANDQMASGAIAVSLERDISVPKQLSFIGYDNSPFPKYISPKLSTVSNPIQEMGKMAALWVLKNVYNKPDLSIVNTFTPQLILRDSVKEGHHHHHH | soluble
10 | MQGPPRFGRLGGGAARRAARAQAPLYQEQPNYRDLVELAAEQARQAAAAPPPQLVPMLRDPIPIRFHRRDELLDRFGMDLGVAHRQELPNERIELAEARDQLAEQQRRALEAQRDQLARHNALADDLRARRERIVQEARAHARRADARDARLEAAAAADRRERFLQEAQEADARRAADGDARAELGEQLRALEAAVAGLPEAQAPQLRDRRARFVARLRARRAADAQAGALANEQRALEARLEGDFADLRAAEGRLLHPPPPQVCEFFFFAHFLLKMRKNLENLSQKLRFEVENWKIPLKFEICEILWKNHENCSKKR | not soluble
11 | MKLSGGVEWALHCCVVLSQAESPVPTARLAELHGVSKTYLAKHLQSLARAGLVHPTEGRDGGYVLTRAPEAITVLDVVQAVDGTEPAFRCTEIRRQGVLAAPPEQCRSACGIAKVMAGAEQAWRASLSSVTIADLGATIDLTVLKHILATSTT | not soluble
12 | MEKMKNLDGKVALVTGASRGIGRAIAMRLANDGALVAIHYGRNKQAADETIREIESNEGKAFLIEADLNSIDGVKKLVEQLKNELQIRVGTSEIDILVNNAGIGTQGTIENTTEEIFDEIMAVNIKAPFFLIQQTLPLLRAEGRVINISSAEVRLGFTGSIAYGLSKGALNTMTLPLAKHLGERGITVNTIMPGYTKTDINAKLLDDPEIRNFAANSSVFGRIGQVEDIADAVAFLAASDSRWVTGQIIDVSGGFCL | not soluble
13 | MAHHHHHHMRAIQTLFIHSDKRVFLFPNTSNRTKYPSLITFPKIVLYSTPEAKRYRCVQKYLSTDFSSCSDNPHEILGRILRVPQSRSSMRKMLFTIPGIDPIQGILNGSRVCNELIRIKDVTWNRPHLIHAFFDHLPVFRFFLRSLVTLHPRTHRLHIHLVRAIHDDSRRSFLFLSFIIVAHAWR | not soluble
14 | MSIHICQPVSPKENPNGILNNSRPTTALSGLPELHTVGQGADLEIWTKDSHALLFLLKGEPAVFVGPESGNSQLSGDNVVLLAANLRIRLRAEKGPATLICFYFHPTLHLCLGICPSSGNKKECRRRTEIVHISSLQRETMVNSWLHSVMGYLSEMPTSSEIFELKLRELFCIFRSRYEKPLLDNFLSSFHCQNKGFRAFVFRHHLECRSAEELAAKMNLSLSSFKRHFNQEFSCPPLKWMHEERAKHVYTDLADPSLSLKAIAEKNLFSSVSYLCAFCRKMLGNTPLQLRKAMGQQPK | not soluble
15 | VKPPHGFQKKMKLEVVDKRNPMFIRVATVADTDDHRVKVHFDGWNNCYDYWIDADSPDIHPVGWCSKTGHPLQPPLSPLELMEASEHGGCSTPG | soluble
16 | MGHHHHHHSHIKPGEEVFTSYIDLLYPTEDRNDRLRDSYFFTCECQECTTKDKDKAKVEIRKLSDPPKAEAIRDMVRYARNVIEEFRRAKHYKSPSELLEICELSQEKMSSVFEDSNVYMLHMMYQAMGVCLYMQDWEGALQYGQKIIKPYSKHYPLYSLNVASMWLKLGRLYMGLEHKAAGEKALKKAIAIMEVAHGKDHPYISEIKQEIESH | not soluble
17 | YESIDLKAVLFDMDGVLFDSMPNHAESWHKIMKRFGFGLSREEAYMHEGRTGASTINIVSRRERGHDATEEEIKAIYQAKTEEFNKCPKAERMPGALEVLTKIKSEGLTPMVVTGSGQTSLLDRLNHNFPGIFQANLMVTAFDVKYGKPNPEPYLMALKKGGFKPNEALVIENAPLGVQAGVAAGIFTIAVNTGPLHDNVLLNEGANLLFHSMPDFNKNWETLQSALKQ | not soluble
18 | MSISWSMSRNMFKLAHISDVHLGPLPRLSIQELFSKRITGFVNWHRNRRKHLFASTLDLLLDDIRTHRADHLAVTGDLVNLASGIEIRAAAAWLRALGDPADTSVVPGNHDAYVPGAYEKSMRAWYDYVRGDLAPPQWQEDRRIFPYLRVRDKVAIVGCSTAVATPPFAASGFFSARQARDTVNMLRAAGEAGLFRVVMIHHPPIRGATAFHKRMIGIRRFAAVISTGGAELVLHGHTHLNTLHWLRGQVQPVPVVGIASASQGPGSIKPPAAYNLFSIDGAPGAWELTGERFSLNRTGDAMMPESVDIFAPLEHHHHHH | not soluble
19 | MGSEIDQNDTDSSTQEWYRLLVVEKSTTLSDFMTSKRTKMVSDFPEEREEAIEEIIEVISTFPMDFLQKDEVSLLLNYFINSIESSALTGGAVIRGVHHLILKSKNLPDNFEVSLIRVLFKEGNVQSWAQKERQLQYEILIWFLKYRLSFLKGLGPDFLATFMKSVSGERDPRCLVHMFSAFLEVSNNFTLGPFTEDMFETIACYFPVEFKPQKTDTITREYLAASCASCLVSSPSFAPFCFLFIDEKLNDDDCSDEEYEDVLNLLILAYNRFPAQKKNLSLIEPLIGGIRKIGLNPKNKGEMQKYVSQAFEAVIKLCTKSSETNSKALDGIVSSIVEDSEPFVLQAEMGLCKKALTLLRSAFKSLPDKNSRQIFNQVIAWILNLIQGDSVNAAGNRADIVQEGLEYLVEWIQLASEYKELSIETLAVFEQSIFESCSRAREFKPREAITAIYECASVYFESDCASDELISQCRSYIALALRTPIDTDSDFQSLLKLIRIYSSKNFDQVEIILADNETNSWNAMKVLPVLCAISCSQRWNLLKNKIVDELGSTISSSTEISYLICYVQMMEKCKKDPQLFHQQFEVFESVLYKTDCNEPVSVSYLMQSISLLLSEDDHQKFMNQTTTRYQSLEGSSLDNFNQKYRLAYLQNKNTNDLKTIANLKLPERTIRQLFFAICNREAENENNSEIPEQHHIAEIKAKLLRNAPNSLSAFEQFLTNISGSTESPFEYLLDFDSFDSNPDRCRYETASPLWRQRIFCQIVPIFKRKFEEPGSQKHVLVEMLPHLLTFAVPLDFQQLKKQFAMLLPVLIQTIGMEDVIPSHVTRTIPMFLTISEPLQPKDLGTVVKYLCSITRDNDSNMTNLEDALNGLNILARRQPPKSLHSEVPLVVTSINKILGHKKRLLRMMAADVKNNWEMVITK | not soluble

— the DeepSol protein solubility set
